Laboratory results taken from the supplement of paper PMC9732359.
± gives the uncertainty stated by the source.

Test: protein stability index of a GFP-peptide fusion (yeast GPS) (PSI 1-4); higher = more stable; sorted into four equal gates, so the index is relative within each strain
Method in brief: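 For each peptide, the protein stability index sums the read frequency in every gate after multiplying it by the gate number. Read frequencies came from plasmids that were PCR-amplified from each gate and Illumina-sequenced, with reads assigned to strains by barcodes. The gates were four equal bins of GFP/Cherry fluorescence ratio applied to mid-log yeast in leucine-free medium carrying a pooled library of tiled 17-residue yeast protein peptides fused downstream of GFP on a Cherry-expressing plasmid.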

| Sequence | protein stability index (doa10∆) | protein stability index (pdr5∆) | protein stability index (san1∆) | protein stability index (ubr1∆) |
| --- | --- | --- | --- | --- |
| SLQNNLQNNINNSNNNN [SNF11] | 3.19 ± 0.078 | 3.27 ± 0.099 | 3.31 ± 0.066 | 3.29 ± 0.062 |
| SLRRIRDEMSKAELPQW [MED8] | 1.98 ± 0.071 | 2.36 ± 0.055 | 2.33 ± 0.072 | 1.92 ± 0.04 |
| SLSDELNLDEIVACELI [YJL039C/NUP192] | 2.75 ± 0.13 | 2.53 ± 0.1 | – | 2.61 ± 0.14 |
| SLTYKKISLRDICLKLN [RPN3] | 2.38 ± 0.05 | 2.17 ± 0.047 | 1.44 ± 0.13 | 2.05 ± 0.04 |
| SLYQVDPSGSYFPWKAT [PRE8] | 2.87 ± 0.1 | 2.66 ± 0.11 | 2.65 ± 0.093 | 3.25 ± 0.099 |
| SLYTNTSRKALEEVSLK [RPL3] | – | 2.38 ± 0.13 | 2.33 ± 0.14 | 1.83 ± 0.19 |
| SLYTSREPRVVSALQML [PUP1] | 2.66 ± 0.11 | 2.86 ± 0.065 | 3.03 ± 0.061 | 2.92 ± 0.048 |
| SMDVDDKNSGVKSEVDV [ITC1] | 2.52 ± 0.076 | 1.64 ± 0.039 | 1.78 ± 0.094 | 2.5 ± 0.043 |
| SMILIQQTEKLNPQVAD [RPN2] | 1.53 ± 0.041 | 1.67 ± 0.044 | 1.65 ± 0.073 | 1.63 ± 0.03 |
| SMRVKPSASLKLHHDLK [YMR129W/POM152] | 3.14 ± 0.079 | 2.98 ± 0.064 | 2.95 ± 0.062 | 3.1 ± 0.048 |
| SMSGRISAKDMGQGLCN [BRR2] | 3 ± 0.11 | 3.03 ± 0.084 | 3.02 ± 0.076 | 3.19 ± 0.078 |
| SMSLQSKNLGEINTALN [SWI1] | 2.81 ± 0.12 | 2.9 ± 0.1 | – | 3.08 ± 0.12 |
| SMTATADVLAMAKVEVN [RIP1] | 1.99 ± 0.12 | 2.4 ± 0.11 | 2.43 ± 0.15 | 2 ± 0.074 |
| SNDSQSHFDYNTLEFII [YCG1] | 2.52 ± 0.2 | 2.78 ± 0.19 | – | 2.89 ± 0.14 |
| SNGIFYGPSFTKRESLN [SIR2] | 2.85 ± 0.065 | 2.83 ± 0.045 | 2.65 ± 0.056 | 3.07 ± 0.039 |
| SNLQRAQNVPMNIIQQQ [GAL11] | 2.47 ± 0.052 | 2.55 ± 0.047 | 2.34 ± 0.078 | 2.34 ± 0.031 |
| SNTTTHVPEKKSTDLTP [MTR3] | – | – | 2.15 ± 0.18 | 1.31 ± 0.29 |
| SNTVNANNYSSNIGNNS [YDL088C/ASM4] | 3.17 ± 0.14 | 3.39 ± 0.14 | 3.33 ± 0.12 | 3.19 ± 0.066 |
| SPGSPAYSPKQDEQKHN [RPO21] | 3.11 ± 0.15 | 3.15 ± 0.11 | 3.2 ± 0.11 | 3.27 ± 0.11 |
| SPPCYIIDHIPGHSLLL [SNF5] | 2.14 ± 0.063 | 2.54 ± 0.057 | 2.3 ± 0.079 | 2.49 ± 0.047 |
| SPPPQTHQSPPPPPQQS [SNF5] | 2.87 ± 0.034 | 2.72 ± 0.029 | 2.75 ± 0.032 | 2.74 ± 0.03 |
| SPQQFLRAHTDDSRNPD [PRE2] | 2.93 ± 0.092 | 3.03 ± 0.069 | 2.7 ± 0.079 | 2.88 ± 0.079 |
| SPSEFVDVAIPCNNRGK [RPS0A] | 1.74 ± 0.096 | 1.97 ± 0.065 | 1.61 ± 0.093 | 1.54 ± 0.096 |
| SPSTSANVPSTATTGKR [RPN4] | 2.16 ± 0.18 | 2.2 ± 0.1 | 2.62 ± 0.11 | 2.65 ± 0.096 |
| SPVRSDSADVPAFSNSN [YMR153W/NUP53] | 3.06 ± 0.096 | 3.07 ± 0.096 | 3.21 ± 0.12 | 2.93 ± 0.057 |
| SQISPEKQTPNKKDKKK [RPN1] | 2.95 ± 0.063 | 2.9 ± 0.1 | 3.09 ± 0.06 | 3.12 ± 0.069 |

| Sequence | protein stability index (doa10∆) | protein stability index (pdr5∆) | protein stability index (san1∆) | protein stability index (ubr1∆) |
| --- | --- | --- | --- | --- |
| SQLAQVAAFVNNYPNVE [BRR2] | 2.33 ± 0.064 | 2.63 ± 0.068 | 2.68 ± 0.067 | 2.76 ± 0.051 |
| SQLLLERLMISSDAFEV [RET1] | 1.8 ± 0.08 | 2.4 ± 0.044 | 1.98 ± 0.058 | 1.86 ± 0.049 |
| SQNDGFVIIRGSQILSG [RPO31] | – | 3.13 ± 0.17 | 2.86 ± 0.16 | 2.61 ± 0.29 |
| SQPTNSTTTSLHVPNLQ [SMC4] | 1.99 ± 0.043 | 2.4 ± 0.035 | 2.21 ± 0.052 | 2.03 ± 0.027 |
| SQTTLVQFGLNEETFTV [ARP9] | 2.85 ± 0.086 | 2.92 ± 0.072 | 2.77 ± 0.069 | 2.64 ± 0.059 |
| SRGGVTQVRVEFLEDTS [RPS28A] | 3.41 ± 0.071 | 3.15 ± 0.058 | 3.16 ± 0.052 | 3.22 ± 0.05 |
| SRGLFEKKLMQDNKQLY [YDL116W/NUP84] | 2.75 ± 0.067 | 3.06 ± 0.09 | 3.11 ± 0.078 | 2.93 ± 0.1 |
| SRMRLIRQDVNLGRAVF [PRP8] | 2.06 ± 0.085 | 2.31 ± 0.061 | 2.04 ± 0.084 | 2.35 ± 0.054 |
| SRMTVGKMIELISGKAG [RET1] | 3.14 ± 0.17 | 2.98 ± 0.15 | 3.05 ± 0.094 | 3.12 ± 0.13 |
| SRNKALELNLSVLHSWV [YJL039C/NUP192] | – | 2.5 ± 0.14 | 2.84 ± 0.08 | 2.51 ± 0.24 |
| SRPDILSKIKFPESIWK [YCG1] | 2.77 ± 0.049 | 2.04 ± 0.037 | 1.92 ± 0.058 | 2.06 ± 0.029 |
| SSAHLIRINDEPILGQI [YML103C/NUP188] | 2.59 ± 0.084 | 2.9 ± 0.077 | 2 ± 0.14 | 2.45 ± 0.069 |
| SSASPSALTSPTDSSKI [SIR3] | 2.71 ± 0.048 | 3.08 ± 0.055 | 2.87 ± 0.045 | 2.72 ± 0.033 |
| SSDELKVIEEQLKHTKL [SMC4] | 3.27 ± 0.061 | 3.3 ± 0.077 | 3.04 ± 0.067 | 3.25 ± 0.058 |
| SSEFVSQDTKVICSVTG [RRP46] | 2.67 ± 0.054 | 2.37 ± 0.056 | 2.43 ± 0.076 | 2.58 ± 0.059 |
| SSEGFYSKIKHLGLDDP [SIR2] | 1.83 ± 0.2 | 2.72 ± 0.14 | 1.96 ± 0.17 | 1.2 ± 0.14 |
| SSFNFNKNLPFVWLSSE [SWI1] | 3.05 ± 0.046 | 2.32 ± 0.057 | 1.84 ± 0.053 | 2.4 ± 0.033 |
| SSFTFGSTTIEKKNDEN [YLR335W/NUP2] | 2.79 ± 0.084 | 2.49 ± 0.094 | 3.08 ± 0.063 | 2.99 ± 0.046 |
| SSGQDKKKKKGSNQKPK [RPT2] | 3.08 ± 0.21 | 2.92 ± 0.28 | – | 3.1 ± 0.15 |
| SSIDKKSSILTVLQKNS [YML103C/NUP188] | 1.79 ± 0.063 | 2.42 ± 0.083 | 2.4 ± 0.067 | 2.46 ± 0.058 |
| SSIVAIDWASPEYGRII [YGL100W/SEH1] | 2.57 ± 0.13 | 3.16 ± 0.13 | 2.82 ± 0.079 | 2.69 ± 0.061 |
| SSLNLEDTPANDSSATR [RPB8] | 2.92 ± 0.067 | 2.85 ± 0.065 | 2.68 ± 0.063 | 3.08 ± 0.048 |
| SSNKDLEDEKMKFQESL [SMC4] | – | 2.08 ± 0.26 | – | – |
| SSNPLGITGNLDRIPMH [COB] | 2.62 ± 0.098 | 2.52 ± 0.077 | 2.44 ± 0.065 | 2.49 ± 0.094 |
| SSPLGFEETKLSTTPTK [SIR4] | 2.57 ± 0.053 | 2.71 ± 0.063 | 2.6 ± 0.054 | 2.67 ± 0.058 |
| SSPSHIELVVTEKEEAV [RPL17A] | 2.08 ± 0.051 | 2.74 ± 0.045 | 2.3 ± 0.059 | 2.08 ± 0.039 |
